Assay results: patent US20230227548A1 (published 2023)

Target: T1, human GPRC5D (human, UniProt Q9NZD1 1-345)
T1 construct: on transfected HEK293 or RBL cells, or endogenous on MM1R, H929, OPM2, LP-1, JIM3 and patient plasma cells; also called G-protein coupled receptor family C group 5 member D; hGPRC5D
Test: FACS, human GPRC5D cells

T1 sequence (Q9NZD1 whole entry): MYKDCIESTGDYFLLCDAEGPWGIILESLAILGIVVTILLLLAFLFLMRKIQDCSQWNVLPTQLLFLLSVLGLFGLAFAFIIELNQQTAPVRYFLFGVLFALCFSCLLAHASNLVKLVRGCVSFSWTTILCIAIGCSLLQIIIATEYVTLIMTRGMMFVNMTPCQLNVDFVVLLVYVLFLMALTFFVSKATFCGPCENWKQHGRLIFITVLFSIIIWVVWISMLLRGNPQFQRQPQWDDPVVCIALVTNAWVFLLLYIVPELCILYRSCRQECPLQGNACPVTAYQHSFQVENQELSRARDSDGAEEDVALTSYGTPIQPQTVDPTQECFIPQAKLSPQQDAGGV

Binder | binding result
GC5B471 (antibody, V domains shown, GC5B164 PTM variant, Hc GC5H278) VH: EVQLVQSGAEVKKPGESLKISCKGSGYSFTSYYIGWVRQMPGKGLEWMGIIYPGASDTRYSPSFQGQVTISADKSISTAYLQWSSLKASDTAMYYCARVYSFGGRHKALFDYWGQGTLVTVSS VL: EIVLTQSPATLSLSPGERATLSCRASQSVSSYLAWYQQKPGQAPRLLIYDASNRATGIPARFSGSGSGTDFTLTISSLEPEDFAVYYCQQRSNWPLTFGQGTKVEIK | binds
GC5B477 (antibody, V domains shown, GC5B164 PTM variant, Hc GC5H272) VH: EVQLVQSGAEVKKPGESLKISCKGSGYSFTSYVIGWVRQMPGKGLEWMGIIYPGSSDTRYSPSFQGQVTISADKSISTAYLQWSSLKASDTAMYYCARVYSFGGRHKALFDYWGQGTLVTVSS VL: EIVLTQSPATLSLSPGERATLSCRASQSVSSYLAWYQQKPGQAPRLLIYDASNRATGIPARFSGSGSGTDFTLTISSLEPEDFAVYYCQQRSNWPLTFGQGTKVEIK | binds
GC5B473 (antibody, V domains shown, GC5B164 PTM variant, Hc GC5H276) VH: EVQLVQSGAEVKKPGESLKISCKGSGYSFTSYFIGWVRQMPGKGLEWMGIIYPGASDTRYSPSFQGQVTISADKSISTAYLQWSSLKASDTAMYYCARVYSFGGRHKALFDYWGQGTLVTVSS VL: EIVLTQSPATLSLSPGERATLSCRASQSVSSYLAWYQQKPGQAPRLLIYDASNRATGIPARFSGSGSGTDFTLTISSLEPEDFAVYYCQQRSNWPLTFGQGTKVEIK | binds
GC5B480 (antibody, V domains shown, GC5B164 PTM variant, Hc GC5H269) VH: EVQLVQSGAEVKKPGESLKISCKGSGYSFTSYAIGWVRQMPGKGLEWMGIIYPGSSDTRYSPSFQGQVTISADKSISTAYLQWSSLKASDTAMYYCARVYSFGGRHKALFDYWGQGTLVTVSS VL: EIVLTQSPATLSLSPGERATLSCRASQSVSSYLAWYQQKPGQAPRLLIYDASNRATGIPARFSGSGSGTDFTLTISSLEPEDFAVYYCQQRSNWPLTFGQGTKVEIK | binds
GC5B476 (antibody, V domains shown, GC5B164 PTM variant, Hc GC5H273) VH: EVQLVQSGAEVKKPGESLKISCKGSGYSFTSYYIGWVRQMPGKGLEWMGIIYPGSSDTRYSPSFQGQVTISADKSISTAYLQWSSLKASDTAMYYCARVYSFGGRHKALFDYWGQGTLVTVSS VL: EIVLTQSPATLSLSPGERATLSCRASQSVSSYLAWYQQKPGQAPRLLIYDASNRATGIPARFSGSGSGTDFTLTISSLEPEDFAVYYCQQRSNWPLTFGQGTKVEIK | binds
GC5B487 (antibody, V domains shown, GC5B164 PTM variant, Hc GC5H262) VH: EVQLVQSGAEVKKPGESLKISCKGSGYSFTSYVIGWVRQMPGKGLEWMGIIYPGESDTRYSPSFQGQVTISADKSISTAYLQWSSLKASDTAMYYCARVYSFGGRHKALFDYWGQGTLVTVSS VL: EIVLTQSPATLSLSPGERATLSCRASQSVSSYLAWYQQKPGQAPRLLIYDASNRATGIPARFSGSGSGTDFTLTISSLEPEDFAVYYCQQRSNWPLTFGQGTKVEIK | binds
GC5B478 (antibody, V domains shown, GC5B164 PTM variant, Hc GC5H271) VH: EVQLVQSGAEVKKPGESLKISCKGSGYSFTSYFIGWVRQMPGKGLEWMGIIYPGSSDTRYSPSFQGQVTISADKSISTAYLQWSSLKASDTAMYYCARVYSFGGRHKALFDYWGQGTLVTVSS VL: EIVLTQSPATLSLSPGERATLSCRASQSVSSYLAWYQQKPGQAPRLLIYDASNRATGIPARFSGSGSGTDFTLTISSLEPEDFAVYYCQQRSNWPLTFGQGTKVEIK | binds
GC5B479 (antibody, V domains shown, GC5B164 PTM variant, Hc GC5H270) VH: EVQLVQSGAEVKKPGESLKISCKGSGYSFTSYGIGWVRQMPGKGLEWMGIIYPGSSDTRYSPSFQGQVTISADKSISTAYLQWSSLKASDTAMYYCARVYSFGGRHKALFDYWGQGTLVTVSS VL: EIVLTQSPATLSLSPGERATLSCRASQSVSSYLAWYQQKPGQAPRLLIYDASNRATGIPARFSGSGSGTDFTLTISSLEPEDFAVYYCQQRSNWPLTFGQGTKVEIK | binds
GC5B484 (antibody, V domains shown, GC5B164 PTM variant, Hc GC5H265) VH: EVQLVQSGAEVKKPGESLKISCKGSGYSFTSYGIGWVRQMPGKGLEWMGIIYPGKSDTRYSPSFQGQVTISADKSISTAYLQWSSLKASDTAMYYCARVYSFGGRHKALFDYWGQGTLVTVSS VL: EIVLTQSPATLSLSPGERATLSCRASQSVSSYLAWYQQKPGQAPRLLIYDASNRATGIPARFSGSGSGTDFTLTISSLEPEDFAVYYCQQRSNWPLTFGQGTKVEIK | binds
GC5B488 (antibody, V domains shown, GC5B164 PTM variant, Hc GC5H261) VH: EVQLVQSGAEVKKPGESLKISCKGSGYSFTSYFIGWVRQMPGKGLEWMGIIYPGESDTRYSPSFQGQVTISADKSISTAYLQWSSLKASDTAMYYCARVYSFGGRHKALFDYWGQGTLVTVSS VL: EIVLTQSPATLSLSPGERATLSCRASQSVSSYLAWYQQKPGQAPRLLIYDASNRATGIPARFSGSGSGTDFTLTISSLEPEDFAVYYCQQRSNWPLTFGQGTKVEIK | binds
GC5B485 (antibody, V domains shown, GC5B164 PTM variant, Hc GC5H264) VH: EVQLVQSGAEVKKPGESLKISCKGSGYSFTSYAIGWVRQMPGKGLEWMGIIYPGKSDTRYSPSFQGQVTISADKSISTAYLQWSSLKASDTAMYYCARVYSFGGRHKALFDYWGQGTLVTVSS VL: EIVLTQSPATLSLSPGERATLSCRASQSVSSYLAWYQQKPGQAPRLLIYDASNRATGIPARFSGSGSGTDFTLTISSLEPEDFAVYYCQQRSNWPLTFGQGTKVEIK | binds
GC5B481 (antibody, V domains shown, GC5B164 PTM variant, Hc GC5H268) VH: EVQLVQSGAEVKKPGESLKISCKGSGYSFTSYYIGWVRQMPGKGLEWMGIIYPGKSDTRYSPSFQGQVTISADKSISTAYLQWSSLKASDTAMYYCARVYSFGGRHKALFDYWGQGTLVTVSS VL: EIVLTQSPATLSLSPGERATLSCRASQSVSSYLAWYQQKPGQAPRLLIYDASNRATGIPARFSGSGSGTDFTLTISSLEPEDFAVYYCQQRSNWPLTFGQGTKVEIK | binds
GC5B486 (antibody, V domains shown, GC5B164 PTM variant, Hc GC5H263) VH: EVQLVQSGAEVKKPGESLKISCKGSGYSFTSYYIGWVRQMPGKGLEWMGIIYPGESDTRYSPSFQGQVTISADKSISTAYLQWSSLKASDTAMYYCARVYSFGGRHKALFDYWGQGTLVTVSS VL: EIVLTQSPATLSLSPGERATLSCRASQSVSSYLAWYQQKPGQAPRLLIYDASNRATGIPARFSGSGSGTDFTLTISSLEPEDFAVYYCQQRSNWPLTFGQGTKVEIK | binds
GC5B482 (antibody, V domains shown, GC5B164 PTM variant, Hc GC5H267) VH: EVQLVQSGAEVKKPGESLKISCKGSGYSFTSYVIGWVRQMPGKGLEWMGIIYPGKSDTRYSPSFQGQVTISADKSISTAYLQWSSLKASDTAMYYCARVYSFGGRHKALFDYWGQGTLVTVSS VL: EIVLTQSPATLSLSPGERATLSCRASQSVSSYLAWYQQKPGQAPRLLIYDASNRATGIPARFSGSGSGTDFTLTISSLEPEDFAVYYCQQRSNWPLTFGQGTKVEIK | binds
GC5B483 (antibody, IgG4, V domains shown, GC5B164 variant D55K, W33F; IgG4 S228P, L234A, L235A; also called GC5H266) VH: EVQLVQSGAEVKKPGESLKISCKGSGYSFTSYFIGWVRQMPGKGLEWMGIIYPGKSDTRYSPSFQGQVTISADKSISTAYLQWSSLKASDTAMYYCARVYSFGGRHKALFDYWGQGTLVTVSS VL: EIVLTQSPATLSLSPGERATLSCRASQSVSSYLAWYQQKPGQAPRLLIYDASNRATGIPARFSGSGSGTDFTLTISSLEPEDFAVYYCQQRSNWPLTFGQGTKVEIK | binds
GC5B491 (antibody, V domains shown, GC5B164 PTM variant, Hc GC5H258) VH: EVQLVQSGAEVKKPGESLKISCKGSGYSFTSYYIGWVRQMPGKGLEWMGIIYPGYSDTRYSPSFQGQVTISADKSISTAYLQWSSLKASDTAMYYCARVYSFGGRHKALFDYWGQGTLVTVSS VL: EIVLTQSPATLSLSPGERATLSCRASQSVSSYLAWYQQKPGQAPRLLIYDASNRATGIPARFSGSGSGTDFTLTISSLEPEDFAVYYCQQRSNWPLTFGQGTKVEIK | binds
GC5B474 (antibody, V domains shown, GC5B164 PTM variant, Hc GC5H275) VH: EVQLVQSGAEVKKPGESLKISCKGSGYSFTSYGIGWVRQMPGKGLEWMGIIYPGASDTRYSPSFQGQVTISADKSISTAYLQWSSLKASDTAMYYCARVYSFGGRHKALFDYWGQGTLVTVSS VL: EIVLTQSPATLSLSPGERATLSCRASQSVSSYLAWYQQKPGQAPRLLIYDASNRATGIPARFSGSGSGTDFTLTISSLEPEDFAVYYCQQRSNWPLTFGQGTKVEIK | binds
GC5B472 (antibody, V domains shown, GC5B164 PTM variant, Hc GC5H277) VH: EVQLVQSGAEVKKPGESLKISCKGSGYSFTSYVIGWVRQMPGKGLEWMGIIYPGASDTRYSPSFQGQVTISADKSISTAYLQWSSLKASDTAMYYCARVYSFGGRHKALFDYWGQGTLVTVSS VL: EIVLTQSPATLSLSPGERATLSCRASQSVSSYLAWYQQKPGQAPRLLIYDASNRATGIPARFSGSGSGTDFTLTISSLEPEDFAVYYCQQRSNWPLTFGQGTKVEIK | binds
GC5B492 (antibody, V domains shown, GC5B164 PTM variant, Hc GC5H257) VH: EVQLVQSGAEVKKPGESLKISCKGSGYSFTSYVIGWVRQMPGKGLEWMGIIYPGYSDTRYSPSFQGQVTISADKSISTAYLQWSSLKASDTAMYYCARVYSFGGRHKALFDYWGQGTLVTVSS VL: EIVLTQSPATLSLSPGERATLSCRASQSVSSYLAWYQQKPGQAPRLLIYDASNRATGIPARFSGSGSGTDFTLTISSLEPEDFAVYYCQQRSNWPLTFGQGTKVEIK | binds
GC5B490 (antibody, V domains shown, GC5B164 PTM variant, Hc GC5H259) VH: EVQLVQSGAEVKKPGESLKISCKGSGYSFTSYAIGWVRQMPGKGLEWMGIIYPGESDTRYSPSFQGQVTISADKSISTAYLQWSSLKASDTAMYYCARVYSFGGRHKALFDYWGQGTLVTVSS VL: EIVLTQSPATLSLSPGERATLSCRASQSVSSYLAWYQQKPGQAPRLLIYDASNRATGIPARFSGSGSGTDFTLTISSLEPEDFAVYYCQQRSNWPLTFGQGTKVEIK | binds
GC5B475 (antibody, V domains shown, GC5B164 PTM variant, Hc GC5H274) VH: EVQLVQSGAEVKKPGESLKISCKGSGYSFTSYAIGWVRQMPGKGLEWMGIIYPGASDTRYSPSFQGQVTISADKSISTAYLQWSSLKASDTAMYYCARVYSFGGRHKALFDYWGQGTLVTVSS VL: EIVLTQSPATLSLSPGERATLSCRASQSVSSYLAWYQQKPGQAPRLLIYDASNRATGIPARFSGSGSGTDFTLTISSLEPEDFAVYYCQQRSNWPLTFGQGTKVEIK | binds
